For series [1], the system named is MS2 coat protein. Description: apparent KD of MS2 coat protein; higher = weaker reporter binding. To be noted: Eterna round: R107. On the procedure:
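RNA-MaP round R107: designed RNA switches with theophylline, tryptophan, arginine or FMN aptamers are transcribed on-chip within common flanks. They are titrated with SNAP-549-labelled MS2 coat protein in RNA-MaP buffer (100 mM Tris pH 7.5, 80 mM KCl, 4 mM MgCl2), without ligand or with the indicated ligand. Median apparent KD per design.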

Series [2] has as its system K4 kissing-loop RNA reporter. Description: apparent KD of K4 kissing-loop reporter; higher = weaker reporter binding. As to conditions: Eterna round: R107. As to the method:
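RNA-MaP round R107: designed RNA switches with theophylline, tryptophan, arginine or FMN aptamers are transcribed on-chip within common flanks. They are titrated with a labelled K4 kissing-loop RNA reporter in RNA-MaP buffer (100 mM Tris pH 7.5, 80 mM KCl, 4 mM MgCl2), without ligand or with the indicated ligand. Median apparent KD per design.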

[3] abbreviates: input ligand: theophylline 20 uM.
The mark [4] stands for this setting: input ligand: theophylline 2 mM.
Setting [5] is: input ligand: tryptophan 2.4 mM.
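Throughout, for apparent KD of K4 kissing-loop reporter: bound reporter read as fluorescence of individual clusters on recovered sequencing chips by microscopy, with normalized cluster intensities fitted with a binding model.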

For the sequence “GCACGGUAGUCGGCCGCCACUGAAACAUGUGUCUACAUGAGGAUCACCCAUGUGGGUGUGUUUUGUAGGACCGGGACAAGACCCG [#11 Same State - Tryptophan B]”, the “apparent KD of MS2 coat protein” value in series [1] (input ligand: arginine 13.2 mM) was found to be 16.8 nM; in series [1] (input ligand: none) it was 19 nM; in series [1] (setting [3]) it was 28.1 nM; in series [1] (setting [4]), 18 nM; in series [1] (setting [5]), 17.2 nM.
Consider “AUAAGUAAUGUUUCGUGUAUUAUUACAGAUACCAGACUAUACGUUGUCCCUUGGCAGCUGGAUUACAUGAGGAUCACCCAUGUUG [JR_ExcTheophyA_Sub002]”, for which the entries for the “apparent KD of MS2 coat protein” value in series [1] (input ligand: arginine 13.2 mM), in series [1] (setting [3]) and in series [1] (setting [5]) were 16 nM, 19.3 nM and 17.1 nM, respectively.
Regarding “GUAUAUAUGCGAAGGAGCGGGAAAUAUAUAUAUAUAAUCCUAACAUGAGGAUCACCCAUGUCCCAGGUAGGUCGCGCAUAUAUAU [12.B]”, the “apparent KD of MS2 coat protein” value in series [1] (input ligand: arginine 13.2 mM) is 68.7 nM; in series [1] (input ligand: none), 69.6 nM; in series [1] (setting [3]), 86.9 nM; in series [1] (setting [4]) it was 83.6 nM; in series [1] (setting [5]) it was 76.1 nM.
The like results for “AAAUAAAUAACUGAUACCAGUGGACUGACAUGAGGAUCACCCAUGUUGGGUUUUGUUGUCCACCCUUGGCAGCAGGGAUAUAAAA [#24 Exclusion-TheophyllineB]” were, in that order, 24.4 nM, 38.5 nM, 54.7 nM, 70.9 nM and 43.4 nM.
For “GUGGAGACAUGAGAUACCAGUCUCUUUAACAUGAGGAUCACCCAUGUAAUGCUCCUCGGAGACCCUUGGCAGCUCAGUAUGAUGA [#09 Exclusion-TheophyllineB]”, the “apparent KD of MS2 coat protein” value in series [1] (input ligand: arginine 13.2 mM) came out at 32.2 nM; in series [1] (setting [3]) it was 71.7 nM; in series [1] (setting [5]) it was 34.4 nM.
The matching figures for “CAACUGGCAGAGGAUACCAGAUCAUUUAGAAACAUGAGGAUCACCCAUGUCGUAAGGAUAAUCCCUUGGCAGCCUAUCCGCCUCG [theeternabot_sameState_MS2_Theo_B_48]”: 14.2 nM, 16.6 nM and 14.5 nM.
The matching figures for “AGCGCAGGUCCUGAUACCAGAGACAUGAGGAUCACCCAUGUCCGAUGGUCCUGCCUCAGGCUCCCUUGGCAGCAGGGCUUGUGCU [Exclusion Theophylline B GF10]”: 10.6 nM, 13.1 nM and 10.1 nM.
“GGGCAAGAGGGAAGGAGCGUCGGCUGAGUAACAUGAGGAUCACCCAUGUAGCACAUAGUGUGGCAGGUAGGUCGCCCUCUGCCCU [SS-ArgB7]”: the “apparent KD of MS2 coat protein” value in series [1] (input ligand: arginine 13.2 mM) is 17.5 nM; in series [1] (input ligand: none), 11.3 nM; in series [1] (setting [3]), 16.9 nM; in series [1] (setting [4]) it was 13.7 nM; in series [1] (setting [5]), 13.2 nM.
Turning to “UGUGUCGUCUGAAGGAGCGGCUCUUGAUCCUCGUGGGACAUGAGGAUCACCCAUGUCUCGAGCCAGGUAGGUCGCAGGCGGCACA [#27 Exclusion - Arginine B]”, the “apparent KD of MS2 coat protein” value in series [1] (input ligand: arginine 13.2 mM) was determined as 31.3 nM; in series [1] (input ligand: none) it was 26 nM; in series [1] (setting [3]), 32.6 nM; in series [1] (setting [4]), 23.8 nM; in series [1] (setting [5]), 20.7 nM.
Consider “ACGACGCAUAGUGAUACCAGUAGAACAUGAGGAUCACCCAUGUCUGUUAUGUACAAAUACUGCCCUUGGCAGCACUAUGCGUCAG [SSTheo B #5]”, for which the “apparent KD of MS2 coat protein” value worked out at 9.85 nM in series [1] (input ligand: arginine 13.2 mM), 12.1 nM in series [1] (setting [3]) and 11.6 nM in series [1] (setting [5]).
“AUUCAUGAAAACAUGACAUGAGGAUCACUCCGAGGACCGGUACGGCCGCCACUCGCGAGGAGGCACAUGAGGAUCACCCAUGUUA [SS Tryp A #2]”: the results for the “apparent KD of MS2 coat protein” value in series [1] (input ligand: arginine 13.2 mM), in series [1] (setting [3]) and in series [1] (setting [4]) were 36 nM, 119 nM and 143 nM, respectively.
Regarding “AAGGCAUUCAGAAGGAGCGUGGUUUAAUCAUUAAUAUUUUUUACGAGUGAUGUUCGUAAUUCACAGGUAGGUCGCUGAAUAAUAA [JR_ExcArginiB_Sub008]”, the “apparent KD of K4 kissing-loop reporter” value came out at 123 nM in series [2] (input ligand: FMN 200 uM); 136 nM in series [2] (input ligand: arginine 13.2 mM); 128 nM in series [2] (input ligand: none); 134 nM in series [2] (setting [3]); 114 nM in series [2] (setting [5]).
The matching figures for “AUAAACUUGCAGUGAUGUUGCAAGUAAGACUAGGAUAUCAGGAAACUGAGAAGGAGUCAUCUCCUUCAACUGCAAGAAUGAAGGA [[K1]-[K2]-[F1]-[F2]-[F]'-[K]'-[F]''_Design4]”: 147 nM, 108 nM, 129 nM, 104 nM and 133 nM.
Turning to “UCGAUGGCCAGCGAUACCAGCCCAGUGAUGUUGGGCACAUGGUUGCGGGAAAUCCCAUUGGGCCCUUGGCAGCGCUUGCAUAGGU [Cezaat]”, the “apparent KD of K4 kissing-loop reporter” value came out at 197 nM in series [2] (input ligand: FMN 200 uM); 155 nM in series [2] (input ligand: arginine 13.2 mM); 162 nM in series [2] (input ligand: none); 219 nM in series [2] (setting [3]); 171 nM in series [2] (setting [5]).
The like results for “GGCACGGUGGCGCGACUGCCGUGCGCUUGGGAGGAUAUGUUUCGUGACAGAAGGCCCAGUGAUGUUGGGUCUGUUCAAAAGGACU [Gegearer]” were, in that order, 359 nM, 125 nM, 127 nM, 130 nM and 112 nM.
The matching figures for “AGUGGUGUUGUGUUAUGUUUGGGAAGUGAUCGAGGACCGGUACGGCCGCCACUCGAGUGAUGAGUGAGUGAUGUUUGUUUAGGGA [whbob_SS_Tryp_A_m10]”: 927 nM, 636 nM, 1530 nM, 646 nM and 658 nM.
Take “UGAUACCAGACUGAUACCAGCAGUGAUGUUGCUGAUAAGGGUAGAGUCAAAGACUCUACCUGCCCUUGGCAGCAGUCUGGUAUCU [TheoBX 14 #SwitchBubble #StaticStem]”: the “apparent KD of K4 kissing-loop reporter” value in series [2] (input ligand: FMN 200 uM) came out at 167 nM; in series [2] (input ligand: arginine 13.2 mM), 146 nM; in series [2] (input ligand: none), 167 nM; in series [2] (setting [3]) it was 173 nM; in series [2] (setting [5]) it was 156 nM.

Values taken from the supplement of paper PMC9170038.
